Experimental data from patent publication US20160168210A1, “DERIVATIVES OF COLLAGEN-BINDING HAIRPIN PEPTIDES” (NATIONAL RESEARCH COUNCIL OF CANADA, priority 2012, published 2016).
“Also recorded” adds a separate entry of the source. Where no end group is shown, it is not given here.

Experiments:
[1] = tested on: fibrotic tissues of the lung; experiment: Fluorescence imaging in bleomycin-induced mouse model of pulmonary fibrosis; type: in vivo
From the text: Tissue localization of the representative compound FL4247 containing a collagen-binding hairpin peptide was further examined using a bleomycin-induced mouse model of pulmonary fibrosis. […] This is accompanied by fluorescence localization into generally inflamed tissues in the oral cavities of these mice, which are induced through either mechanical or contact damages. It can therefore be concluded that FL4247 has an affinity for inflamed/fibrosing tissues in vivo, very likely due to specific binding of the collagen-responsive hairpin moiety to newly-secreted collagen enriched in these tissue environments.
Specifically, pulmonary instillation of bleomysin was used to initiate pulmonary fibrosis in a mouse model using immune-compromised nude mice. The objective was to determine if the fluorescent FL4247 compound would localize in fibrotic tissues of the lung induced by bleomycin. […] The imaging data thus obtained confirm that: 1) the fluorescence detected in vivo in the thorax region was indeed coming from the lung and from the heart; and 2) since no fluorescence was detected in the lung and heart of the control mouse, the signal detected in the fibrotic mouse injected with FL4247 is very likely a result of different lung tissues induced by fibrosis. […]

[2] = tested on: abdominal vena cava injured by FeCl3
From the text: The application of ferric chloride on venous and arterial vessels was therefore the method used to produce the inflamed vasculature in the animal model. The carotid artery (arterial model) and the abdominal vena cava (venous model) were the chosen vessels for the imaging experiments with injured blood vessels undergong thrombosis.
The FeCl3 rat venous model of thrombosis was generated as described (Wang 2005) with some modifications. Briefly, rats were anesthetized with a 2.5% isoflurane/oxygen mixture and placed on a heat source (35-37° C.). The vena cava was then exposed via a midline incision and the region between the renal and iliolumbar veins was isolated. One minute after drug administration, a piece of filter paper (Gel Blot Paper, GB003, Whatman, Piscataway, N.J., USA; 7 mm diameter) saturated with 10% FeCl3 (EMD Chemicals Inc., Gibbstown, N.J., USA) was placed on the exposed surface of the vena cava and incubated for 3.5 minutes. During the application of FeCl3, the abdominal region was covered with aluminum foil. At the end of the incubation period, the filter paper was removed and the exposed viscera covered with a saline-soaked gauze.
In these imaging experiments, there were also a 30-minute waiting time after introduction of FeCl3 to the exposed vena cava to ensure the development of substantial vascular injury and the deposition of a thrombus.

[3] = In vivo biodistribution by fluorescence imaging in nude mice; set-up: species or system mouse; settings: for fluorescence biodistribution: ~0.25 mg/kg
Procedure: (§1) Immune-compromised nude mice (20-30 g) and normal Sprague-Dawley rats (250-310 g; Charles River Laboratories, St-Constant, QC, Canada) were acclimated for at least 3 days prior to the start of the study. Animals were housed in microisolator cages and were kept on a 12-hr light/dark cycle with constant temperature and humidity. Food and water were provided ad libitum. Stock solutions of various agents and peptides of this invention were diluted in saline (0.9% sodium chloride) prior to use. Saline formulations of FL4247 were prepared in such a way that similar dose levels were achieved based on the body weight of the experimental animals used for the study (i.e. in mg/kg).
(§2) Of the different methods available, imaging with fluorescently-labeled test compounds is particularly useful for assessing the in vivo biodistribution in real time with live animals. Therefore, the biodistribution of FL4247 was followed over time in two nude mice each for two routes of administration: 1) intravenous (I.V.); and 2) intraperitoneal (I.P.). Another imaging experiment was carried out using a Sprague-Darley rat (Charles River Laboratories, St-Constant, QC, Canada) through a tail-vein (I.V.) administration of an FL4247 solution.
The I.V. injection route depicted similar results in both studies even though the imaging sequence parameters were different (study 1=1 image/2 minutes over 30 minutes; study 2=1 image/5 minutes over 60 minutes).
Similar results were obtained in two studies involving the I.P. route of injection. Different imaging parameters were again used (study 1=1 image/2 minutes over 60 minutes; study 2=1 image/5 minutes over 90 minutes). The I.P. injection of FL4247 led to the accumulation of the compound at the level of the head within 5 minutes. […] The distribution of FL4247 over the entire body is complete within 30 minutes accompanied by a slow accumulation of fluorescence in the bladder region.

[4] = biological target: rat-tail collagen type I (Rattus norvegicus, UniProt P02454+P02466); experiment: Retention of fluorescent peptide by collagen hydrogels, fluorescence imaging; type: binding; set-up: used together with rat-tail collagen (type I); from tissue; host or cells: rat tail; settings: pre-formed or pre-mixed collagen hydrogel disks
From the text: Peptide P4247 conjugated to a fluorescent probe, i.e. FL4247 (Table 5), was therefore used together with rat-tail collagen (type I) to assess the binding capacity of CBLH peptides to collagen and to illustrate the potential applications of collagen hydrogels formulated with compounds of this invention. The fluorescent probe, HiLyte Fluor750 (AnaSpec, California) was selected with a maximum absorption at an optical wavelength of 750 nm and with a maximum fluorescence emission at 800 nm. Therefore, the intensity of fluorescence emissions would also be optimal for in vivo imaging of tissue locations with a differential enrichment of the injected fluorescent compound (see Examples 8-10). […] For this first experiment, FL4247 in a hydrogel solution were loaded onto the pre-formed collagen hydrogels and molecular diffusion off FL4247 was followed by fluorescence imaging (FIG. 8A, left image). […] Such FL4247-collagen hydrogel preparations (FIG. 8A, right) were then submerged in a large volume of buffer solutions (e.g. the PBS) and the degree of FL4247 retention by the hydrogels were followed by fluorescence imaging (FIG. 8B). […] However, the observed fluorescence intensity was still restricted close to the center of the hydrogel disks 30 minutes after the FL4247 solution was applied (FIG. 8A, left). […]

[5] = In vivo biodistribution by fluorescence imaging in a normal Sprague-Dawley rat
Procedure: as §1, §2
The biodistribution was also assessed using one rat in which FL4247 was injected intravenously (I.V.) through the tail vein. To illustrate the capacity for image contrast, only 10% (one tenth or 1/10) of FL4247 was used with the normal rat (FIG. 9C) as compared to the dosage of FL4247 used for imaging vascular injury in venous thrombosis (see FIG. 10). […] Then the fluorescence became more intense in both kidneys for the next 25 minutes and finally the fluorescence appeared in the bladder for the remainder of the experiment time. Although the head was not imaged during this experiment, ex vivo imaging was carried out at the end of the live-animal protocol with the dissected brain, heart, liver and both kidneys. A small amount of fluorescence was detected in the liver and a much stronger signal (about 10 times) was present in both kidneys.

Sequence of rat-tail collagen type I (P02466 86-1125): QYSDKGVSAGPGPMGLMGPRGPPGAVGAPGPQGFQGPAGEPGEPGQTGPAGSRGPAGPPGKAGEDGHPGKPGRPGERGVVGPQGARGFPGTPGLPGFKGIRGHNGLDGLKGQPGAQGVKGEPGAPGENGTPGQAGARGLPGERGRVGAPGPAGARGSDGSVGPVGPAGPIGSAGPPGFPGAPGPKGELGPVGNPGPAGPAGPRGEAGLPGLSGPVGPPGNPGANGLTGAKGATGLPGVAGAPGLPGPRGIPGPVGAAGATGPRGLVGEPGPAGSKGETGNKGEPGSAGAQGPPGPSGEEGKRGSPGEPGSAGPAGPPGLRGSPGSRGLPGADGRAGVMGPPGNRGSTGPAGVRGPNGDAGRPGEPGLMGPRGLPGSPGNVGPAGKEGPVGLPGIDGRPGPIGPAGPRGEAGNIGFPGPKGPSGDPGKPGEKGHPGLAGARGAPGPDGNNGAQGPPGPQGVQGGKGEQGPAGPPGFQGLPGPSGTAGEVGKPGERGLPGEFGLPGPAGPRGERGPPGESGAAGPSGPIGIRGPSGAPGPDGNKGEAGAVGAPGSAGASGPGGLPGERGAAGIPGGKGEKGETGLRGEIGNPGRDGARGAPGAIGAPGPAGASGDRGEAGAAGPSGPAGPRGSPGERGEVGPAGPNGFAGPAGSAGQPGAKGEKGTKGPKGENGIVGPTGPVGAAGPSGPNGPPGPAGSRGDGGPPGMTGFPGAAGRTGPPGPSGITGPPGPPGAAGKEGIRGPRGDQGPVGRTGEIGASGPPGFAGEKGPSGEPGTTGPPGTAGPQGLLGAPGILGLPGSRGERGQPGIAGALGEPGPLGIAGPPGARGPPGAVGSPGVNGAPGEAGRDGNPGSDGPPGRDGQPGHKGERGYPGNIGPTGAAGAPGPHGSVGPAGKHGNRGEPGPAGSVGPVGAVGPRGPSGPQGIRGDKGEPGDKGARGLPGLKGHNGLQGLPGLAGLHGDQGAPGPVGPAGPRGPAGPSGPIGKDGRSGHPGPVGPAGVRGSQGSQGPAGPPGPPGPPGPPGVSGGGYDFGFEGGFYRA
Sequence of rat-tail collagen type I (P02454 152-1207): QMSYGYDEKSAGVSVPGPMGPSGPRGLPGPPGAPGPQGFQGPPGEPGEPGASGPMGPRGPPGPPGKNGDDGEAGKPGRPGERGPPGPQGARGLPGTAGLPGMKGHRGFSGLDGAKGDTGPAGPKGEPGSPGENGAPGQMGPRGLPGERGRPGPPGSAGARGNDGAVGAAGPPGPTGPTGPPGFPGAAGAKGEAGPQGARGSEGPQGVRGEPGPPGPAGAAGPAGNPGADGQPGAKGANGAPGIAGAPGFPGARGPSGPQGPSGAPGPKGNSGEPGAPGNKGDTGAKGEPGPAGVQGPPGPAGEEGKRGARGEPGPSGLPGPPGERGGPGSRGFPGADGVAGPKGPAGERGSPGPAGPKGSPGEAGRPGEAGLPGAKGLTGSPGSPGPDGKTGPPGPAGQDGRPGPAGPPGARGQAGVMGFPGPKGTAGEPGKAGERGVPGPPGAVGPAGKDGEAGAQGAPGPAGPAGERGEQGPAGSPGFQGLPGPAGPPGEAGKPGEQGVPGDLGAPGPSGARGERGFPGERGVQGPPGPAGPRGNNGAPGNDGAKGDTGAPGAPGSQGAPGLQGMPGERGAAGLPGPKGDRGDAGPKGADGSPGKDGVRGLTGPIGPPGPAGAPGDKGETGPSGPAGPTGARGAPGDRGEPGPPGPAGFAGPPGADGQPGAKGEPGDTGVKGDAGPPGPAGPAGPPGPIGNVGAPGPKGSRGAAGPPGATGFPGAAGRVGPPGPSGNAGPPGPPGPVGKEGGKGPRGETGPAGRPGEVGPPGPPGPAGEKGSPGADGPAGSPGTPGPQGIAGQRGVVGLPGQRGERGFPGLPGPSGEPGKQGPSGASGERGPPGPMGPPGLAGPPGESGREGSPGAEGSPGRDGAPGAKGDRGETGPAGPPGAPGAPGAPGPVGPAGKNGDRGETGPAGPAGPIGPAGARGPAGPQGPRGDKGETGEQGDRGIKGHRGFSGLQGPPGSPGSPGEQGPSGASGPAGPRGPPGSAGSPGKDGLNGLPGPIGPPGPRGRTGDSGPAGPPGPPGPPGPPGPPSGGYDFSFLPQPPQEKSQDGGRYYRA

## IRFTDGEWTWDDATKTWTWTEGGC-Fluor750 (not fully specified (C-terminus); printed as IRFTDGEWTWDDATKTWTWTEGGC-Fluor750; also: HiLyte Fluor750 conjugate) [FL4247, peptide P4247 conjugated to fluorescent probe HiLyte Fluor750]
[1]; I.V.
  mice with I.V. injection showing marked fluorescence in the lung: two out of three mice
[1]; tail vein injection, ~0.5 mg/kg
  fluorescence retention in fibrotic lung: high degree of FL4247 fluorescence was retained in the area of the lung
[2]; I.V. 30 minutes after FeCl3 application, ~0.2 mg/kg
  fluorescence at the injured abdominal vena cava: strong fluorescence signal
[2]; ex vivo imaging, I.V. 30 minutes after FeCl3
  signal in dissected thrombus weaker than along injured vasculature: about 3 times
[2]; rat venous thrombosis model, I.V.
  clearance: rapid clearance of FL4247 via the kidneys to the bladder
[3]; I.P.
  time to accumulation at the level of the head: ≤ 5 min
  time to complete distribution over the entire body: ≤ 30 min
  fluorescence biodistribution: far inferior over time compared to the I.V. injection; also recorded: no specific local accumulation of FL4247 was noted
[3]; I.V.
  fluorescence biodistribution: accumulated rapidly in the head region followed by a slow decrease of fluorescent intensity over time; also recorded: accumulated in the bladder; also recorded: no other organs appeared to accumulate or retain FL4247
[4]
  diffusion in / retention by collagen hydrogels (fluorescence): significantly retarded the diffusion of FL4247 in the gel matrix; also recorded: could resist outward diffusion into buffer solutions
[5]; I.V. tail vein, 0.025 mg/kg
  fluorescence biodistribution (live and ex vivo imaging): differential accumulation in the head region, in the kidneys and in the bladder; also recorded: Nothing was detected in the brain and heart organs
[5]; I.V., end of live-animal protocol
  ex vivo signal in both kidneys relative to liver: about 10 times
[5]; I.V., within 5 minutes
  decrease of liver fluorescence: 10 times
